From patent publication US20250320478 come the findings set out here.

Test in all cases: cell_activity
For series [1], the system named is ZFP3:G:D3A (synthetic construct). As to conditions: triple combination with ZFP8:G:K and ZFP6:G:hD3L; not tested alone.
The subject of series [2] is ZFP8 (Pcsk9 ZFP, KRAB/DNMT3 effector fusions) (synthetic construct). As to conditions: upper end of 1.5-17 range for bi-partite ZFP8 ETRs in Hepa 1-6 Pcsk9tdTomato; tri-partite 2-8 fold; binding inferred from silencing.
The test system of series [3] is ZFP6:G:hD3L (synthetic construct). As to conditions: triple combination with ZFP8:G:K and ZFP3:G:D3A; not tested alone.
ZFP6:G:hD3L (synthetic construct), sequence (chain, as listed by the source): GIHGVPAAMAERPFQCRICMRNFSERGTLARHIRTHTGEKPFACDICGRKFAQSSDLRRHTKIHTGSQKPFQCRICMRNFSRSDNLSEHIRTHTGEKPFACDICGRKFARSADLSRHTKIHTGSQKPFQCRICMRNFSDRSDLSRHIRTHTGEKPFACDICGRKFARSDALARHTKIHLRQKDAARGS

ZFP3:G:D3A (synthetic construct), sequence (chain, as listed by the source): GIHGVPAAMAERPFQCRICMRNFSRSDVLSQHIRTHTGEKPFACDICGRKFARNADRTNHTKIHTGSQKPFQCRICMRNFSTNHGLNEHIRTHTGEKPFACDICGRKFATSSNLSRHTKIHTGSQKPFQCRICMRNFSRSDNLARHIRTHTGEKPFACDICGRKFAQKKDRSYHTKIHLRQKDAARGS

As to “Pcsk9 promoter CpG island, ZFP3 target site”, the activity (fold silencing vs ZFPoff) in series [1] is 15. Substance “Pcsk9 promoter CpG island, ZFP8 target site” yielded an activity (fold silencing vs ZFPoff) in series [2] of 17. Turning to “Pcsk9 promoter CpG island, ZFP6 target site”, in series [3], the activity (fold silencing vs ZFPoff) was 15.
